First the molecules themselves.
B1: library; a variant is named by its letters at N, in order (parent)
chain: GCUGUCACCGAGAAACUGUGAAGUAUAUCUUAAACCUGGGCACUUAAAAGAUAUAUGGAGUUAGUAGUGCAACCUGCUCGGUCUGAUGAGUCCNNNNNNGGACGAAACAGC

± gives the standard deviation of the averaged measurements.

Variants of B1 are the subject of series [1]. In words: normalized RNA/DNA level without ligand (relative to sTRSVctl = 100) (log10 (% of sTRSVctl)); HEK293T; ligand: cyclic di-GMP (c-di-GMP-II aptamer); higher = less ribozyme self-cleavage, higher mRNA level. Conditions: reporter: mCherry (pCS4076), ligand present: no. In a few lines: (§1)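 Library plasmids carrying ribozyme switches linked to mCherry, or to eGFP in some ligand experiments, were transfected into HEK293T at 4 µg per 6-well well, with any ligand added 1 h earlier. Seventy-two hours on, total RNA was extracted with EDTA and reverse-transcribed, amplified, barcoded and sequenced. RNA level was RNA over DNA reads normalized to a spiked-in non-cleaving sequence or to the top sequences, then scaled and log-transformed. The top set was 25 sequences, the transform was ×100 and log10, and sequences needed ≥100 DNA reads.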

The variants in series [2] derive from B1. In words: normalized RNA/DNA level with ligand (relative to sTRSVctl = 100) (log10 (% of sTRSVctl)); HEK293T; ligand: cyclic di-GMP (c-di-GMP-II aptamer); ligand concentration (+) RNA-Seq: 1 mM; higher = less ribozyme self-cleavage, higher mRNA level. The settings on record: reporter: mCherry (pCS4076), ligand present: yes. In a few lines:
as §1

As for GCUGUCACCGAGAAACUGUGAAGUAUAUCUUAAACCUGGGCACUUAAAAGAUAUAUGGAGUUAGUAGUGCAACCUGCUCGGUCUGAUGAGUCCCAUUGUGGACGAAACAGC [CAUUGU], in series [1], the “normalized RNA/DNA level without ligand (log10)” value stood at 1.78 ± 0.023. The “normalized RNA/DNA level with ligand (log10)” value in series [2] was 1.88 ± 0.046.

With GCUGUCACCGAGAAACUGUGAAGUAUAUCUUAAACCUGGGCACUUAAAAGAUAUAUGGAGUUAGUAGUGCAACCUGCUCGGUCUGAUGAGUCCCAUUGCGGACGAAACAGC [CAUUGC], in series [1], the “normalized RNA/DNA level without ligand (log10)” value came out at 1.78 ± 0.056. Besides, in series [2], the “normalized RNA/DNA level with ligand (log10)” value worked out at 1.85 ± 0.15.

Consider GCUGUCACCGAGAAACUGUGAAGUAUAUCUUAAACCUGGGCACUUAAAAGAUAUAUGGAGUUAGUAGUGCAACCUGCUCGGUCUGAUGAGUCCCAUUGGGGACGAAACAGC [CAUUGG], for which, in series [1], the “normalized RNA/DNA level without ligand (log10)” value turned out to be 1.804 ± 0.0056. The “normalized RNA/DNA level with ligand (log10)” value in series [2] worked out at 1.93 ± 0.15.

Take GCUGUCACCGAGAAACUGUGAAGUAUAUCUUAAACCUGGGCACUUAAAAGAUAUAUGGAGUUAGUAGUGCAACCUGCUCGGUCUGAUGAGUCCCAUUGAGGACGAAACAGC [CAUUGA]: the “normalized RNA/DNA level without ligand (log10)” value in series [1] was 1.602 ± 0.0057. The “normalized RNA/DNA level with ligand (log10)” value in series [2] came to 1.76 ± 0.13.

Consider GCUGUCACCGAGAAACUGUGAAGUAUAUCUUAAACCUGGGCACUUAAAAGAUAUAUGGAGUUAGUAGUGCAACCUGCUCGGUCUGAUGAGUCCUAUUGGGGACGAAACAGC [UAUUGG], for which, in series [1], the “normalized RNA/DNA level without ligand (log10)” value is 1.75 ± 0.061. Further, the “normalized RNA/DNA level with ligand (log10)” value in series [2] was found to be 1.87 ± 0.076.

As for GCUGUCACCGAGAAACUGUGAAGUAUAUCUUAAACCUGGGCACUUAAAAGAUAUAUGGAGUUAGUAGUGCAACCUGCUCGGUCUGAUGAGUCCUAUUGCGGACGAAACAGC [UAUUGC], the “normalized RNA/DNA level without ligand (log10)” value in series [1] stood at 1.76 ± 0.025. The “normalized RNA/DNA level with ligand (log10)” value in series [2] amounted to 1.87 ± 0.088.

GCUGUCACCGAGAAACUGUGAAGUAUAUCUUAAACCUGGGCACUUAAAAGAUAUAUGGAGUUAGUAGUGCAACCUGCUCGGUCUGAUGAGUCCUAUUGUGGACGAAACAGC [UAUUGU]: the “normalized RNA/DNA level without ligand (log10)” value in series [1] is 1.67 ± 0.034. In addition, the “normalized RNA/DNA level with ligand (log10)” value in series [2] turned out to be 1.81 ± 0.11.

For the variant GCUGUCACCGAGAAACUGUGAAGUAUAUCUUAAACCUGGGCACUUAAAAGAUAUAUGGAGUUAGUAGUGCAACCUGCUCGGUCUGAUGAGUCCUAUUGAGGACGAAACAGC [UAUUGA], in series [1], the “normalized RNA/DNA level without ligand (log10)” value turned out to be 1.6713 ± 0.00062. Besides, the “normalized RNA/DNA level with ligand (log10)” value in series [2] was determined as 1.83 ± 0.1.

GCUGUCACCGAGAAACUGUGAAGUAUAUCUUAAACCUGGGCACUUAAAAGAUAUAUGGAGUUAGUAGUGCAACCUGCUCGGUCUGAUGAGUCCCAUUUGGGACGAAACAGC [CAUUUG]: in series [1], the “normalized RNA/DNA level without ligand (log10)” value was 1.75 ± 0.062. Also, in series [2], the “normalized RNA/DNA level with ligand (log10)” value is 1.91 ± 0.095.

For the variant GCUGUCACCGAGAAACUGUGAAGUAUAUCUUAAACCUGGGCACUUAAAAGAUAUAUGGAGUUAGUAGUGCAACCUGCUCGGUCUGAUGAGUCCCAUUUCGGACGAAACAGC [CAUUUC], the “normalized RNA/DNA level without ligand (log10)” value in series [1] is 1.67 ± 0.022. Also, the “normalized RNA/DNA level with ligand (log10)” value in series [2] is 1.82 ± 0.14.

Regarding GCUGUCACCGAGAAACUGUGAAGUAUAUCUUAAACCUGGGCACUUAAAAGAUAUAUGGAGUUAGUAGUGCAACCUGCUCGGUCUGAUGAGUCCCAUUUUGGACGAAACAGC [CAUUUU], in series [1], the “normalized RNA/DNA level without ligand (log10)” value was 1.535 ± 0.0069. In series [2], the “normalized RNA/DNA level with ligand (log10)” value was 1.76 ± 0.16.

In the case of GCUGUCACCGAGAAACUGUGAAGUAUAUCUUAAACCUGGGCACUUAAAAGAUAUAUGGAGUUAGUAGUGCAACCUGCUCGGUCUGAUGAGUCCGAUUGCGGACGAAACAGC [GAUUGC], the “normalized RNA/DNA level without ligand (log10)” value in series [1] amounted to 1.685 ± 0.0072. Besides, in series [2], the “normalized RNA/DNA level with ligand (log10)” value worked out at 1.84 ± 0.12.

For the variant GCUGUCACCGAGAAACUGUGAAGUAUAUCUUAAACCUGGGCACUUAAAAGAUAUAUGGAGUUAGUAGUGCAACCUGCUCGGUCUGAUGAGUCCGAUUGUGGACGAAACAGC [GAUUGU], the “normalized RNA/DNA level without ligand (log10)” value in series [1] is 1.65 ± 0.037. In addition, in series [2], the “normalized RNA/DNA level with ligand (log10)” value turned out to be 1.82 ± 0.09.

In the case of GCUGUCACCGAGAAACUGUGAAGUAUAUCUUAAACCUGGGCACUUAAAAGAUAUAUGGAGUUAGUAGUGCAACCUGCUCGGUCUGAUGAGUCCAAUUUCGGACGAAACAGC [AAUUUC], the “normalized RNA/DNA level without ligand (log10)” value in series [1] turned out to be 1.721 ± 0.0067. In series [2], the “normalized RNA/DNA level with ligand (log10)” value was found to be 1.87 ± 0.08.

GCUGUCACCGAGAAACUGUGAAGUAUAUCUUAAACCUGGGCACUUAAAAGAUAUAUGGAGUUAGUAGUGCAACCUGCUCGGUCUGAUGAGUCCAAUUUAGGACGAAACAGC [AAUUUA]: the “normalized RNA/DNA level without ligand (log10)” value in series [1] turned out to be 1.61 ± 0.031. Also, the “normalized RNA/DNA level with ligand (log10)” value in series [2] was 1.81 ± 0.15.

As for GCUGUCACCGAGAAACUGUGAAGUAUAUCUUAAACCUGGGCACUUAAAAGAUAUAUGGAGUUAGUAGUGCAACCUGCUCGGUCUGAUGAGUCCAAUUUGGGACGAAACAGC [AAUUUG], the “normalized RNA/DNA level without ligand (log10)” value in series [1] was 1.62 ± 0.071. Besides, in series [2], the “normalized RNA/DNA level with ligand (log10)” value stood at 1.75 ± 0.12.

In the case of GCUGUCACCGAGAAACUGUGAAGUAUAUCUUAAACCUGGGCACUUAAAAGAUAUAUGGAGUUAGUAGUGCAACCUGCUCGGUCUGAUGAGUCCAAUUCUGGACGAAACAGC [AAUUCU], the “normalized RNA/DNA level without ligand (log10)” value in series [1] was 1.769 ± 0.0077. The “normalized RNA/DNA level with ligand (log10)” value in series [2] stood at 1.9 ± 0.092.

As to GCUGUCACCGAGAAACUGUGAAGUAUAUCUUAAACCUGGGCACUUAAAAGAUAUAUGGAGUUAGUAGUGCAACCUGCUCGGUCUGAUGAGUCCAAUUGUGGACGAAACAGC [AAUUGU], the “normalized RNA/DNA level without ligand (log10)” value in series [1] came out at 1.66 ± 0.061. In addition, the “normalized RNA/DNA level with ligand (log10)” value in series [2] was determined as 1.83 ± 0.075.

Consider GCUGUCACCGAGAAACUGUGAAGUAUAUCUUAAACCUGGGCACUUAAAAGAUAUAUGGAGUUAGUAGUGCAACCUGCUCGGUCUGAUGAGUCCAAUUGCGGACGAAACAGC [AAUUGC], for which, in series [1], the “normalized RNA/DNA level without ligand (log10)” value amounted to 1.696 ± 0.016. Also, in series [2], the “normalized RNA/DNA level with ligand (log10)” value came to 1.83 ± 0.091.

With GCUGUCACCGAGAAACUGUGAAGUAUAUCUUAAACCUGGGCACUUAAAAGAUAUAUGGAGUUAGUAGUGCAACCUGCUCGGUCUGAUGAGUCCAAUUGAGGACGAAACAGC [AAUUGA], the “normalized RNA/DNA level without ligand (log10)” value in series [1] came to 1.49 ± 0.096. The “normalized RNA/DNA level with ligand (log10)” value in series [2] is 1.72 ± 0.083.

GCUGUCACCGAGAAACUGUGAAGUAUAUCUUAAACCUGGGCACUUAAAAGAUAUAUGGAGUUAGUAGUGCAACCUGCUCGGUCUGAUGAGUCCGAUUUCGGACGAAACAGC [GAUUUC]: in series [1], the “normalized RNA/DNA level without ligand (log10)” value came out at 1.79 ± 0.13. In addition, the “normalized RNA/DNA level with ligand (log10)” value in series [2] is 1.9 ± 0.12.

For GCUGUCACCGAGAAACUGUGAAGUAUAUCUUAAACCUGGGCACUUAAAAGAUAUAUGGAGUUAGUAGUGCAACCUGCUCGGUCUGAUGAGUCCGAUUUGGGACGAAACAGC [GAUUUG], the “normalized RNA/DNA level without ligand (log10)” value in series [1] was 1.6 ± 0.025. Also, the “normalized RNA/DNA level with ligand (log10)” value in series [2] was determined as 1.76 ± 0.11.

GCUGUCACCGAGAAACUGUGAAGUAUAUCUUAAACCUGGGCACUUAAAAGAUAUAUGGAGUUAGUAGUGCAACCUGCUCGGUCUGAUGAGUCCUAUUUCGGACGAAACAGC [UAUUUC]: the “normalized RNA/DNA level without ligand (log10)” value in series [1] was found to be 1.75 ± 0.0095. Also, the “normalized RNA/DNA level with ligand (log10)” value in series [2] came out at 1.87 ± 0.1.

For the variant GCUGUCACCGAGAAACUGUGAAGUAUAUCUUAAACCUGGGCACUUAAAAGAUAUAUGGAGUUAGUAGUGCAACCUGCUCGGUCUGAUGAGUCCUAUUUGGGACGAAACAGC [UAUUUG], the “normalized RNA/DNA level without ligand (log10)” value in series [1] came out at 1.732 ± 0.0073. Moreover, the “normalized RNA/DNA level with ligand (log10)” value in series [2] came to 1.86 ± 0.1.

As for GCUGUCACCGAGAAACUGUGAAGUAUAUCUUAAACCUGGGCACUUAAAAGAUAUAUGGAGUUAGUAGUGCAACCUGCUCGGUCUGAUGAGUCCUAUUUAGGACGAAACAGC [UAUUUA], the “normalized RNA/DNA level without ligand (log10)” value in series [1] turned out to be 1.707 ± 0.0067. Moreover, the “normalized RNA/DNA level with ligand (log10)” value in series [2] was found to be 1.84 ± 0.12.

On to GCUGUCACCGAGAAACUGUGAAGUAUAUCUUAAACCUGGGCACUUAAAAGAUAUAUGGAGUUAGUAGUGCAACCUGCUCGGUCUGAUGAGUCCGAUUCUGGACGAAACAGC [GAUUCU], for which, in series [1], the “normalized RNA/DNA level without ligand (log10)” value is 1.748 ± 0.014. In addition, the “normalized RNA/DNA level with ligand (log10)” value in series [2] worked out at 1.86 ± 0.12.

(Values after the supplement of paper PMC6757056.)
